The values below come from patent US20180016325.

Series [1] has as its target MP-LAFG-PABC-(piperazinoBOR) LA-104 as antibody conjugate AAC-193.
The target in series [2] is thioFAB 4497 MP-LAFAA-QSY7.
The target in series [3] is thioFAB S4497-MC-GGAFAGGG-(pipBOR).
The target in series [4] is thioFAB 4497 MP-LAFGA-QSY7.

B1: staphopain A (protein)
chain: YNEQYVNKLENFKIRETQGNNGWCAGYTMSALLNATYNTNKYHAEAVMRFLHPNLQGQQFQFTGLTPREMIYFEQTQGRSPQLLNRMTTYNEVDNLTKNNKGIAILGSRVESRNGMHAGHAMAVVGNAKLNNGQEVIIIWNPWDNGFMTQDAKNNVIPVSNGDHYQWYSSIYGY
On to B1, for which, in series [1], the Percent cleavage pH 5 worked out at 100%; the Percent cleavage pH 7.2 was 46%; the “percent cleavage at pH 7.2” value is “Staphopain A showed 100% cleavage at pH5 and 64% cleavage at pH 7.2”.

B2: staphopain B (protein)
chain: DQVQYENTLKNFKIREQQFDNSWCAGFSMAALLNATKNTDTYNAHDIMRTLYPEVSEQDLPNCATFPNQMIEYGKSQGRDIHYQEGVPSYNQVDQLTKDNVGIMILAQSVSQNPNDPHLGHALAVVGNAKINDQEKLIYWNPWDTELSIQDADSSLLHLSFNRDYNWYGSMIGY
Regarding B2, the Percent cleavage pH 7.2 in series [2], in series [4] and in series [1] was 100% throughout. For the same protein, the “cleavage of the linker (LC-MS)” value in series [3] is recorded as “Staphopain B was found to cleave the linker at the same site as the active protease purified from Wood46 supernatant”. This protein also registered a Percent cleavage pH 5 in series [1] of 100%.
